The values that follow come from patent US20050084489A1, “Methods of preventing or treating disorders by administering and integrin alphanubeta3 antagonist in combination with an HMG-CoA reductase inhibitor or a bisphosphonate” (priority 2002, published 2005).

For test [1], the target named is T1, mouse integrin αVβ3 (Mus musculus, UniProt O54890).
T1 sequence (O54890 26-787): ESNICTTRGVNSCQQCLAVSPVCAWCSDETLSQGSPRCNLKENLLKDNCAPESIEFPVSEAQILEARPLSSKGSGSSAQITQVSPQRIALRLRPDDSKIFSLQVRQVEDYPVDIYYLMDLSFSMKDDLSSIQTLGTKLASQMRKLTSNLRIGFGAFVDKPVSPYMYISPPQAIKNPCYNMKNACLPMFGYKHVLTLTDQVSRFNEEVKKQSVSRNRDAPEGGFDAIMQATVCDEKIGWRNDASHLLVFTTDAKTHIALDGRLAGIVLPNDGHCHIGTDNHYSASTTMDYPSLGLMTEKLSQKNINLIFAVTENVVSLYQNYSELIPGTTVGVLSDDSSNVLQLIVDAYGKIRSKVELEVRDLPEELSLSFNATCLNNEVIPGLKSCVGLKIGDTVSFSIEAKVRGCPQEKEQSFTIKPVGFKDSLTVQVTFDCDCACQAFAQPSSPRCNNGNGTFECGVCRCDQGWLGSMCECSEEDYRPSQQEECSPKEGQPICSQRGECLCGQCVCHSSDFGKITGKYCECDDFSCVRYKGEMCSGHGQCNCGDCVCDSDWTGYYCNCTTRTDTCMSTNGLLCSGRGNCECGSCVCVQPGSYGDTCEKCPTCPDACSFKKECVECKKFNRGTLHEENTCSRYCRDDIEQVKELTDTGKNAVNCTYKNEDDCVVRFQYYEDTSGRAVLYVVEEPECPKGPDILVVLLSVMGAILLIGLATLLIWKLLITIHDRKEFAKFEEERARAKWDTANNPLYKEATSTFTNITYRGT
T1 sequence (P43406 31-885 partner limits assumed): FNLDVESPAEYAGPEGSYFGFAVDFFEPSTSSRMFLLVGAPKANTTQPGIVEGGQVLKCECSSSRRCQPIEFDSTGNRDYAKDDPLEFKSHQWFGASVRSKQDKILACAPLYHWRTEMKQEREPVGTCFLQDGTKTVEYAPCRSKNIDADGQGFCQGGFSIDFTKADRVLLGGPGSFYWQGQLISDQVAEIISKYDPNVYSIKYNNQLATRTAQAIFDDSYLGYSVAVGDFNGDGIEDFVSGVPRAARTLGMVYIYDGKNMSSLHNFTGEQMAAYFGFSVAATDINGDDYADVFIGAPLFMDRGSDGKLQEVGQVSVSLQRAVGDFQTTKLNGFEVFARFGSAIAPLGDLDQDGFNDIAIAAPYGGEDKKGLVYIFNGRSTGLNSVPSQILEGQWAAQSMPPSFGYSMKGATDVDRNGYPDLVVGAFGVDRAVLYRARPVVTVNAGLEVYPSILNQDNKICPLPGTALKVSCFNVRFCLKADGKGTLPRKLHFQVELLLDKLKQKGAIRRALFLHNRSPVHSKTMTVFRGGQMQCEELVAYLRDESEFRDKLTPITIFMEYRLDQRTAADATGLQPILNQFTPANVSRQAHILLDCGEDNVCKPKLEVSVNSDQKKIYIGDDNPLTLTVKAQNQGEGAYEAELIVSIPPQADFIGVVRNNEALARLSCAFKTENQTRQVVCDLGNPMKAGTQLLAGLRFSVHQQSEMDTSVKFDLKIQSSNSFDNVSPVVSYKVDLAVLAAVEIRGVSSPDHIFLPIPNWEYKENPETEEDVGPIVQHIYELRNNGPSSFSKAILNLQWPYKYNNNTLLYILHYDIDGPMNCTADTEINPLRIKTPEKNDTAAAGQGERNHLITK
T1 sequence (P43406 887-1044 partner limits assumed): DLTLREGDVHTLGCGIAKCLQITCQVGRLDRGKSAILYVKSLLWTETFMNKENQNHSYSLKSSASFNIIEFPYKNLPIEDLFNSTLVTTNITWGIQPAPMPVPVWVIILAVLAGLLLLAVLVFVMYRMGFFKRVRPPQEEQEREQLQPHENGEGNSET
Put plainly: Antibody binding to wild type mouse integrin αVβ3. The source says:
(§1) The invention encompasses methods for identifying antagonists that are immunospecific for integrin αVβ3, particularly for antibodies that specifically bind to the same epitope as VITAXIN® and/or LM609. […] In certain embodiments, amino acid substitutions are made in the subunits of integrin αVβ3, for example to change the ligand specificity of the integrin αVβ3 and/or disrupt the heterodimerization of the subunit chains. Preferably the integrin αVβ3 is human. In specific embodiments, such amino acid substitutions disrupt the specific interaction of certain antagonists of integrin αVβ3 with a particular integrin αVβ3 epitope. In a preferred embodiment, the amino acid substitutions are made within regions of an integrin subunit that confers ligand binding specificity, preferably ligand binding specificity of LM609 and/or VITAXIN®, particularly residues 164-202 of human β3. Alternatively, mouse β chain residues corresponding to residues 164-202 of the human β3 chain are replaced with the residues 164-202 of the human β3 chain. Such mouse-human chimeras can be used to screen for antagonists that bind to the region 164-202 of human β3 but not to mouse integrin αVβ3.
(§2) In addition, the invention provides methods for identifying monoclonal antibodies that bind to the heterodimerized αVβ3 but not the αV or the β3 chains when not included in a heterodimer. […]

Test [2] concerns the target T2, modified mouse integrin αVβ3 (mouse-human chimera, human β chain residues 164-202) (Mus musculus, UniProt O54890, A208T/I198L/K199E/N204D/N207T/Q196E/S226T).
T2 sequence (O54890 26-787 Q196E/I198L/K199E/N204D/N207T/A208T/S226T): T1 sequence (O54890 26-787) with Q171E, I173L, K174E, N179D, N182T, A183T, S201T
T2 sequence (P43406 31-885 partner): T1 sequence (P43406 31-885 partner limits assumed)
T2 sequence (P43406 887-1044 partner): T1 sequence (P43406 887-1044 partner limits assumed)
Put plainly: Antibody binding to modified mouse integrin αVβ3 carrying amino acids 164-202 of the human β chain. As to conditions: mouse β chain region replaced with amino acids 164-202 of the human β chain.
Excerpt: as §1, §2

The subject of test [3] is integrin αVβ3 with mutated human β3 chain. Put plainly: Antibody binding to integrin αVβ3 heterodimer with human β3 residues substituted with rat residues.
Excerpt: as §1
In preferred embodiments, the amino acid substitutions are made in the β3 subunit. In certain embodiments, human β3 residues are substituted with rat residues as described in Table 2. […] Such substitutions preferred examples but not limiting. Such substituted subunits are merely exemplary and not limiting. Any integrin αVβ3 regions identified to be responsible for antibody binding can be altered with substituted, deleted or inserted residues to characterize binding specificity of various antibodies and to screen for antibodies with the same a similar binding specificity.
In addition, the invention provides methods for identifying monoclonal antibodies that bind to the heterodimerized αVβ3 but not the αV or the β3 chains when not included in a heterodimer. […] The antibodies identified from such screening methods can be useful for the prevention, management and treatment of integrin αVβ3-mediated diseases and disorders, including but not limited to inflammatory diseases, autoimmune disorders, disorders associated with aberrant expression and/or activity of integrin αvβ3, disorders associated with abnormal bone metabolism, disorders associated with aberrant angiogenesis and cancers, or a condition or symptom associated therewith. It is also contemplated that such antibodies can be used in the methods and compositions contemplated by the present invention. […]

Positions count from the first letter of the chain named.

B1: VITAXIN®: humanized monoclonal antibody MEDI-522 (MedImmune) that immunospecifically binds to integrin αVβ3; human IgG1 subclass (antibody, chains of the INN, looked up, V domains shown)
VH: QVQLVESGGGVVQPGRSLRLSCAASGFTFSSYDMSWVRQAPGKGLEWVAKVSSGGGSTYYLDTVQGRFTISRDNSKNTLYLQMNSLRAEDTAVYYCARHLHGSFASWGQGTTVTVSS
VL: EIVLTQSPATLSLSPGERATLSCQASQSISNFLHWYQQRPGQAPRLLIRYRSQSISGIPARFSGSGSGTDFTLTISSLEPEDFAVYYCQQSGSWPLTFGGGTKVEIK
In the case of B1, in test [1], the “binding to mouse integrin αVβ3” value is “do not bind”. The “binding to modified mouse integrin αVβ3” value in test [2] is “do bind”. In addition, the “effect of β3 mutation on antibody binding to integrin αVβ3” value is “disrupts binding” in test [3] (Mutation A: Glu to Gln at position 171 (E171Q)); “disrupt binding” in test [3] (Mutation B: Leu and Glu to Ile and Lys at positions 173 and 174 (L173I, E174K)); “disrupts binding” in test [3] (Mutations A and C combined (three substituted residues)). The “effect of β3 mutation on antibody binding to the integrin αVβ3 heterodimer” value in test [3] (mutation of residues 171, 173 and/or 174 of the human β3 chain) is “disrupt binding”.
